Residue numbers refer to the chain shown, from its start.
T1: human CD45 ectodomain (Homo sapiens, UniProt P08575)
T1 construct: purified human, rhesus or cynomolgus CD45 ectodomain
T1 sequence (P08575 26-577): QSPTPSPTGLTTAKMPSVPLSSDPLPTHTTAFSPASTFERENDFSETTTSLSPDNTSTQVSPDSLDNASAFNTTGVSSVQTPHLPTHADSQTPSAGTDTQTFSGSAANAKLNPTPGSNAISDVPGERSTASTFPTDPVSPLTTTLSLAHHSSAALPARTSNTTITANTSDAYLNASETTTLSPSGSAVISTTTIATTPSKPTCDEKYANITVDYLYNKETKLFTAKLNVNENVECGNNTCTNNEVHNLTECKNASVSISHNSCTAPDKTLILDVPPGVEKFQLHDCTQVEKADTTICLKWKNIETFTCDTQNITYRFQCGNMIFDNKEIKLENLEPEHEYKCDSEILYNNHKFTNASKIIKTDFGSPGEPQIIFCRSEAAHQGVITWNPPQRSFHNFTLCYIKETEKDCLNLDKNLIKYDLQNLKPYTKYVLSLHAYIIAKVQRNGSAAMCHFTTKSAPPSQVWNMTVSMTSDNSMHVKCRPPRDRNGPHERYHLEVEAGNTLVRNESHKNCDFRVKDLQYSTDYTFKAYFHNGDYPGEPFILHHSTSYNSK

T2: rhesus CD45 ectodomain (Macaca mulatta, UniProt A0A1D5R142)
T2 construct: purified human, rhesus or cynomolgus CD45 ectodomain
T2 sequence (A0A1D5R142 26-581): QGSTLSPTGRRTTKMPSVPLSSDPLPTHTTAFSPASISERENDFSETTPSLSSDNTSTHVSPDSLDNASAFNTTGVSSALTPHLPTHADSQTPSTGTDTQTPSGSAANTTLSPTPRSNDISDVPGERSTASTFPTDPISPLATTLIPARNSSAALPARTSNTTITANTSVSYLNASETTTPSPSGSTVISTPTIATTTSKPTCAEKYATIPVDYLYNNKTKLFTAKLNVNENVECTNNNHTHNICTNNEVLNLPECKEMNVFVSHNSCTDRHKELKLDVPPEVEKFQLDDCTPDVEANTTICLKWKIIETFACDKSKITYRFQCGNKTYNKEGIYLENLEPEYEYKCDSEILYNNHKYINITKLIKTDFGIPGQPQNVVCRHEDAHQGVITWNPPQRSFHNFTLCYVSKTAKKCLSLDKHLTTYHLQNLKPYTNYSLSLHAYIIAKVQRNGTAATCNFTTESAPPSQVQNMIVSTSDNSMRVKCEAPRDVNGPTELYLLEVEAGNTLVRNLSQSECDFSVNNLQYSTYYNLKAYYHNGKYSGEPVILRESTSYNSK

B1: Ab5: variant of Ab4 with asparagine to serine substitution in CDR-L1; VH SEQ ID NO:41, VL SEQ ID NO:45 (antibody, V domains shown)
VH: EVQLVESGGGLVQPGGSLRLSCAASGFTFEAYSMNWVRQAPGKGLEWVSYISLSGATIHYADSVKGRFTISRDNAKNSLYLQMNSLRAEDTAVYYCARGGQYYYTSSDYGEVAFDIWGQGTMVTVSS
VL: DIVMTQSPLSLPVTPGEPASISCRSSQSLVSSGYNYLDWYLQKPGQSPQLLIYFGSSRASGVPDRFSGSGSGTDFTLKISRVEAEDVGVYYCMQRRRTPWSFGGGTKVEIK
B2: Ab7: variant of Ab3 with asparagine to serine substitution in CDR-L1; VH SEQ ID NO:61, VL SEQ ID NO:65 (antibody, V domains shown)
VH: B1 VH with E1Q, Q13K, E30G, A31G, L53I, H59T, T105D
VL: DIVMTQSPLSLPVTPGEPASISCRSSQSLVSSGYNYLDWYLQKPGQSPQLLIYFGSSRASGVPDRFSGSGSGTDFTLKISRVEAEDVGVYYCMQRRRTPPFTFGGGTKVEIK
B3: Ab3: affinity matured human anti-CD45 IgG derived from Ab1; VH SEQ ID NO:21, VL SEQ ID NO:25 (antibody, V domains shown)
VH: B1 VH with E1Q, Q13K, E30G, A31G, L53I, H59T, T105D
VL: B2 VL with S32N
B4: Ab6: affinity matured human anti-CD45 IgG derived from Ab1; VH SEQ ID NO:51, VL SEQ ID NO:55 (antibody, V domains shown)
VH: B1 VH with M122L
VL: B1 VL with M4L
B5: Ab2: affinity matured human anti-CD45 IgG derived from Ab1; VH SEQ ID NO:11, VL SEQ ID NO:15 (antibody, V domains shown)
VH: B1 VH with T105D
VL: B1 VL with S32N
B6: AbC: affinity matured variant of parent clone C; VH SEQ ID NO:91, VL SEQ ID NO:95 (antibody, V domains shown)
VH: EVQLVESGGGLVQPGGSLRLSCAASGFTFNNYWMTWVRQAPGKGLEWVSSISSSGGSIYYPDSVKDRFTISRDNAKNSLYLQMNSLRAEDMAVYYCARLYYYDGGGDAWGQGTLVTVSS
VL: GIQMTQSPSSLSASVGDRVTITCKASQDINKYLDWYQQKPGKAPKLLIYNTNNLHTGIPSRFSGSGSGTDYTLTISSLQPEDFATYYCLQHISRWTFGGGTKVEIK
B7: AbA: humanized and affinity matured variant of parent clone A; VH SEQ ID NO:71, VL SEQ ID NO:75 (antibody, V domains shown)
VH: EVQLLESGGGLVQPGGSLRLSCAASGFTFNNYWMTWVRQAPGKGLEWVSSISSSGGSIYYPDRVKGRFTISRDNSKNTLYLQMNSLRAEDTAVYYCARDERWAGAMDAWGQGTTVTVSS
VL: DIQMTQSPSSLSASVGDRVTITCKASQNINKNLDWYQQKPGKAPKLLIYETNNLQTGVPSRFSGSGSGTDFTLTISSLQPEDFATYYCYQHNSRFTFGQGTKLEIK
B8: AbB: affinity matured variant of parent clone B; VH SEQ ID NO:81, VL SEQ ID NO:85 (antibody, V domains shown)
VH: EVQLVESGGGLVQPGGSLRLSCAASGFTFTNFWMAWIRQAPGKGLEWVASISSSGGSIYYPDSVKDRFTISRDNSKNTLYLQMNSLRAEDTAVYYCVKFHHYSGGGDAWGQGTLVTVSS
VL: B6 VL with G1D, D28N, Y49H, N50Y, I92S

biological target: T1, human CD45 ectodomain; assay: Biolayer interferometry (BLI, Octet) binding of immobilized IgG to purified CD45 ectodomain; conditions: BLI / Octet
Protocol: (§1) Antibody binding studies were performed at 25° C. in 1×PBS supplemented with 0.1% w/v bovine serum albumin with a Pall ForteBio Octet Red96 using biolayer interferometry (BLI).
(§2) The apparent monovalent affinity (KD), apparent association rate (KON), and apparent dissociation rate (KOFF) were determined by local full fitting with a 1:1 binding model as calculated by ForteBio data analysis software version 10 of each IgG to purified human, cynomolgus or rhesus CD45 ectodomain. […] Binding was confirmed using
Briefly, antibody binding studies were performed at 25° C. in 1×PBS supplemented with 0.1% w/v bovine serum albumin with a PALL FORTEBIO OCTET RED96 using biolayer interferometry (BLI). Each purified antibody was immobilized onto anti-human Fc biosensors (AHQ; PALL FORTEBIO 18-5001) and incubated with 100 nM of purified human or 300 nM of cynomolgus CD45 ectodomain.
(§3) The apparent monovalent affinity (KD), apparent association rate (KON), and apparent dissociation rate (KDIS or KOFF) were determined by local full fitting with a 1:1 binding model as calculated by FORTEBIO data analysis software version 10. […] Each of the selected humanized antibodies AbA, AbB, and AbC was able to cross react with human and cynomolgus CD45.

Row | Molecule | CD45 binding compared with parent (qualitative)
1 | B1 | did not alter CD45 binding
2 | B2 | did not alter CD45 binding

same assay, conditions: Table 2, Human CD45

Row | Molecule | Kdis [s⁻¹] | Kon [M⁻¹ s⁻¹]
3 | B3 | 0.000225 | 260000
4 | B1 | 3.36e-05 | 233000
5 | B2 | 0.000615 | 264000
6 | B4 | 1.73e-05 | 242000
7 | B5 | 2.8e-05 | 245000

same assay, conditions: Table 11, Human CD45

Row | Molecule | KON [M⁻¹ s⁻¹] | Kdis [s⁻¹]
8 | B6 | 50800 | 0.000149
9 | B7 | 50300 | 0.000181
10 | B8 | 43800 | 0.000239

same assay, conditions: text b859

Row | Molecule | improved affinity over the parent clone
11 | B6 | greater than 4 fold

test system: cynomolgus CD45 ectodomain; assay: as above; conditions: Table 2, Cynomolgus CD45
Sequence (as listed by the source): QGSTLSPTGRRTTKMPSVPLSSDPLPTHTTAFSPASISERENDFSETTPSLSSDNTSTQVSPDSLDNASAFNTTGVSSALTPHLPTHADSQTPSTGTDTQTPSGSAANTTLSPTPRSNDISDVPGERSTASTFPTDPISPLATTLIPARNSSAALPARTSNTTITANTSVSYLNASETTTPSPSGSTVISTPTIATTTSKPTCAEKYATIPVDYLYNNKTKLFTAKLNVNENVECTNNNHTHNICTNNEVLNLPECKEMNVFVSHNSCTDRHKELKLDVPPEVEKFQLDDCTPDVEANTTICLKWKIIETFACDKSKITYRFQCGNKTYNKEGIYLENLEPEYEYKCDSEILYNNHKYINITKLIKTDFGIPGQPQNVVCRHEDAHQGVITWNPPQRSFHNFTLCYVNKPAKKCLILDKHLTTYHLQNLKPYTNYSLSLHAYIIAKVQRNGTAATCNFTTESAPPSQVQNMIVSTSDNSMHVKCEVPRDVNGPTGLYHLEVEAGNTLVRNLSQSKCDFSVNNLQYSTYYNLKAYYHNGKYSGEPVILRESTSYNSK
Protocol: as §1, §2
Briefly, antibody binding studies were performed at 25° C. in 1×PBS supplemented with 0.1% w/v bovine serum albumin with a PALL FORTEBIO OCTET RED96 using biolayer interferometry (BLI). […]
as §3

Row | Molecule | Kdis [s⁻¹] | Kon [M⁻¹ s⁻¹]
12 | B3 | 0.000192 | 120000
13 | B1 | 0.000164 | 117000
14 | B2 | 0.000537 | 127000
15 | B4 | 0.000154 | 118000
16 | B5 | 0.000129 | 119000

same assay, conditions: Table 2, Cynomolgus CD45; 50 nM antigen (Ab1: 300 nM)

Row | Molecule | Kd [nM]
17 | B3 | 1.61
18 | B2 | 4.24
19 | B4 | 1.3
20 | B5 | 1.08

same assay, conditions: Table 11, Cyno CD45

Row | Molecule | KON [M⁻¹ s⁻¹] | Kdis [s⁻¹]
21 | B6 | 11100 | 0.000282
22 | B7 | 9440 | 0.000322
23 | B8 | 8160 | 0.00042

same assay, conditions: Table 11, Cyno CD45; 300 nM antigen

Row | Molecule | Kd [nM]
24 | B6 | 25.3
25 | B7 | 34.1
26 | B8 | 51.5

biological target: T2, rhesus CD45 ectodomain; assay: as above; conditions: Table 2, Rhesus CD45
Protocol: as §1
as §2, with “using […]” for “using”

Row | Molecule | Kdis [s⁻¹] | Kon [M⁻¹ s⁻¹]
27 | B3 | 0.000222 | 135000
28 | B1 | 0.000193 | 113000
29 | B2 | 0.000544 | 124000
30 | B4 | 0.000175 | 122000
31 | B5 | 0.000192 | 135000

same assay, conditions: Table 2, Rhesus CD45; 50 nM antigen (Ab1: 300 nM)

Row | Molecule | Kd [nM]
32 | B3 | 1.65
33 | B1 | 1.71
34 | B2 | 4.39
35 | B4 | 1.44
36 | B5 | 1.42

test system: not listed separately; assay: Two-week thermal / pH stress stability by HIC and peptide mapping; type: physicochemical; conditions: 4° C., 25° C., 40° C. for 15 days; high pH treatment
Protocol: A two-week stability assay was performed by incubating Ab3 and Ab4 at 4° C., 25° C., and 40° C. for 15 days, after which the antibodies were analyzed by […] (HIC). Briefly, 25 micrograms of the indicated antibody were injected onto a Tosoh TSKgel Phenyl-5PW 7.5 mm ID×7.5 cm 10-micron column (Catalog #07573) on a Waters ARC HPLC/UPLC system. […] This hydrophilic pre-peak was indicative of a potential site of post-translational modification (e.g., oxidation or deamidation). Peptide mapping was subsequently performed to identify which amino acids were modified in each antibody upon exposure to stress (high pH, low pH, and oxidative stress). The peptide mapping analysis identified a potential site of deamidation at an asparagine in CDR-L1 (N30 position) in response to high pH conditions (e.g., pH 8 or greater).
Accordingly, variants of Ab3 and Ab4 were generated in which the asparagine in CDR-L1 (e.g., at position 30B) was substituted with a serine. The resulting antibodies were named Ab7 and Ab5 respectively.

Row | Molecule | HIC hydrophilic pre-peak (deamidated species)
37 | B3 | hydrophilic pre-peak that increased as a function of thermal stress
